± gives the standard deviation of the averaged measurements.
Key:
MCF7 = assay: percentage of EdU-negative (G0-arrested) nuclei per well, 72 h; higher = more G0 arrest; conditions: reference: sequence is the full UniProt precursor, the tested protein was the secreted form or ectodomain
hTERT-HMEC = assay: as above; conditions: reference: sequence is the full UniProt precursor, the tested protein was the secreted form or ectodomain
[1] = protein concentration 0.0301275 µM
[2] = protein concentration 0.301275 µM
[3] = protein concentration 0.0225 µM
[4] = protein concentration 0.03125 µM
[5] = protein concentration 0.3125 µM
[6] = protein concentration 0.01025 µM
[7] = protein concentration 0.1025 µM
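Further: secreted proteins added to cultured cells, EdU pulse at the end, nuclei found by Hoechst imaging, EdU status from nuclear versus surrounding ring intensity ratio, PBS as neutral control.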

Sequence | percentage of EdU-negative (MCF7; [3]) | percentage of EdU-negative (MCF7; protein concentration 0.225 µM) | percentage of EdU-negative (hTERT-HMEC; [3]) | percentage of EdU-negative (hTERT-HMEC; protein concentration 0.225 µM) | also measured
MRALRDRAGLLLCVLLLAALLEAALGLPVKKPRLRGPRPGSLTRLAEVSASPDPRPLKEEEEAPLLPRTHLQAEPHQHGCWTVTEPAAMTPGNATPPRTPEVTPLRLELQKLPGLANTTLSTPNPDTQASASPDPRPLREEEEARLLPRTHLQAELHQHGCWTVTEPAALTPGNATPPRTQEVTPLLLELQKLPELVHATLSTPNPDNQVTIKVVEDPQAEVSIDLLAEPSNPPPQDTLSWLPALWSFLWGDYKGEEKDRAPGEKGEEKEEDEDYPSEDIEGEDQEDKEEDEEEQALWFNGTTDNWDQGWLAPGDWVFKDSVSYDYEPQKEWSPWSPCSGNCSTGKQQRTRPCGYGCTATETRTCDLPSCPGTEDKDTLGLPSEEWKLLARNATDMHDQDVDSCEKWLNCKSDFLIKYLSQMLRDLPSCPCAYPLEAMDSPVSLQDEHQGRSFRWRDASGPRERLDIYQPTARFCLRSMLSGESSTLAAQHCCYDEDSRLLTRGKGAGMPNLISTDFSPKLHFKFDTTPWILCKGDWSRLHAVLPPNNGRACTDNPLEEEYLAQLQEAKEY [Q6H9L7] |  |  |  |  | percentage of EdU-negative (MCF7; [1]): 24.4 ± 0.93%; percentage of EdU-negative (MCF7; [2]): 28.4 ± 1.3%; percentage of EdU-negative (hTERT-HMEC; [1]): 5.26 ± 0.1%; percentage of EdU-negative (hTERT-HMEC; [2]): 5.07 ± 0.18%
MCVGARRLGRGPCAALLLLGLGLSTVTGLHCVGDTYPSNDRCCHECRPGNGMVSRCSRSQNTVCRPCGPGFYNDVVSSKPCKPCTWCNLRSGSERKQLCTATQDTVCRCRAGTQPLDSYKPGVDCAPCPPGHFSPGDNQACKPWTNCTLAGKHTLQPASNSSDAICEDRDPPATQPQETQGPPARPITVQPTEAWPRTSQGPSTRPVEVPGGRAVAAILGLGLVLGLLGPLAILLALYLLRRDQRLPPDAHKPPGGGSFRTPIQEEQADAHSTLAKI | 24.5 ± 3.6% | 26 ± 1.2% | 5.89 ± 1% | 6.68 ± 0.33% | 
MKLWDVVAVCLVLLHTASAFPLPAGKRPPEAPAEDRSLGRRRAPFALSSDSNMPEDYPDQFDDVMDFIQATIKRLKRSPDKQMAVLPRRERNRQAAAANPENSRGKGRRGQRGKNRGCVLTAIHLNVTDLGLGYETKEELIFRYCSGSCDAAETTYDKILKNLSRNRRLVSDKVGQACCRPIAFDDDLSFLDDNLVYHILRKHSAKRCGCI |  |  |  |  | percentage of EdU-negative (MCF7; [4]): 24.9 ± 0.95%; percentage of EdU-negative (MCF7; [5]): 29.1 ± 0.3%; percentage of EdU-negative (hTERT-HMEC; [4]): 5.08 ± 0.53%; percentage of EdU-negative (hTERT-HMEC; [5]): 5.86 ± 0.094%
MWLPRVSSTAVTALLLAQTFLLLFLVSRPGPSSPAGGEARVHVLVLSSWRSGSSFVGQLFNQHPDVFYLMEPAWHVWTTLSQGSAATLHMAVRDLVRSVFLCDMDVFDAYLPWRRNLSDLFQWAVSRALCSPPACSAFPRGAISSEAVCKPLCARQSFTLAREACRSYSHVVLKEVRFFNLQVLYPLLSDPALNLRIVHLVRDPRAVLRSREQTAKALARDNGIVLGTNGTWVEADPGLRVVREVCRSHVRIAEAATLKPPPFLRGRYRLVRFEDLAREPLAEIRALYAFTGLSLTPQLEAWIHNITHGSGPGARREAFKTSSRNALNVSQAWRHALPFAKIRRVQELCAGALQLLGYRPVYSEDEQRNLALDLVLPRGLNGFTWASSTASHPRN [Q9GZX3] | 24.3 ± 0.37% | 31 ± 0.51% | 5.21 ± 0.9% | 23.2 ± 3.6% | 
MAPAQRPLLPLLLLLLPLPPPPFARAEDAARANSDRYAVYWNRSNPRFHAGAGDDGGGYTVEVSINDYLDIYCPHYGAPLPPAERMEHYVLYMVNGEGHASCDHRQRGFKRWECNRPAAPGGPLKFSEKFQLFTPFSLGFEFRPGHEYYYISATPPNAVDRPCLRLKVYVRPTNETLYEAPEPIFTSNNSCSSPGGCRLFLSTIPVLWTLLGS | 25.4 ± 3% | 27.3 ± 0.45% | 5.69 ± 1.4% | 9.78 ± 0.54% | 
MRPPACWWLLAPPALLALLTCSLAFGLASEDTKKEVKQSQDLEKSGISRKNDIDLKGIVFVIQSQSNSFHAKRAEQLKKSILKQAADLTQELPSVLLLHQLAKQEGAWTILPLLPHFSVTYSRNSSWIFFCEEETRIQIPKLLETLRRYDPSKEWFLGKALHDEEATIIHHYAFSENPTVFKYPDFAAGWALSIPLVNKLTKRLKSESLKSDFTIDLKHEIALYIWDKGGGPPLTPVPEFCTNDVDFYCATTFHSFLPLCRKPVKKKDIFVAVKTCKKFHGDRIPIVKQTWESQASLIEYYSDYTENSIPTVDLGIPNTDRGHCGKTFAILERFLNRSQDKTAWLVIVDDDTLISISRLQHLLSCYDSGEPVFLGERYGYGLGTGGYSYITGGGGMVFSREAVRRLLASKCRCYSNDAPDDMVLGMCFSGLGIPVTHSPLFHQARPVDYPKDYLSHQVPISFHKHWNIDPVKVYFTWLAPSDEDKARQETQKGFREEL [Q6Y288] | 23.9 ± 0.6% | 28.2 ± 2.5% | 4.96 ± 0.058% | 9.95 ± 0.45% | 
MMLRLLSSLLLVAVASGYGPPSSHSSSRVVHGEDAVPYSWPWQVSLQYEKSGSFYHTCGGSLIAPDWVVTAGHCISRDLTYQVVLGEYNLAVKEGPEQVIPINSEELFVHPLWNRSCVACGNDIALIKLSRSAQLGDAVQLASLPPAGDILPNKTPCYITGWGRLYTNGPLPDKLQQARLPVVDYKHCSRWNWWGSTVKKTMVCAGGYIRSGCNGDSGGPLNCPTEDGGWQVHGVTSFVSAFGCNFIWKPTVFTRVSAFIDWIEETIASH |  |  |  |  | percentage of EdU-negative (MCF7; [6]): 25.2 ± 3%; percentage of EdU-negative (MCF7; [7]): 24.7 ± 1.6%; percentage of EdU-negative (hTERT-HMEC; [6]): 5.71 ± 1.5%; percentage of EdU-negative (hTERT-HMEC; [7]): 5.66 ± 0.78%
MARPLCTLLLLMATLAGALASSSKEENRIIPGGIYDADLNDEWVQRALHFAISEYNKATEDEYYRRPLQVLRAREQTFGGVNYFFDVEVGRTICTKSQPNLDTCAFHEQPELQKKQLCSFEIYEVPWEDRMSLVNSRCQEA | 25.1 ± 1.4% | 24.36 ± 0.2% | 5.17 ± 0.14% | 6.38 ± 0.58% | 
